Data as given in article PMC4851429 (Structure (London, England : 1993), 2015).

B1: human FLRT3 LRR domain (residues K29-D357) (domain or fragment, UniProt Q9NZU0 29-357, looked up)
chain: KSCPSVCRCDAGFIYCNDRFLTSIPTGIPEDATTLYLQNNQINNAGIPSDLKNLLKVERIYLYHNSLDEFPTNLPKYVKELHLQENNIRTITYDSLSKIPYLEELHLDDNSVSAVSIEEGAFRDSNYLRLLFLSRNHLSTIPWGLPRTIEELRLDDNRISTISSPSLQGLTSLKRLVLDGNLLNNHGLGDKVFFNLVNLTELSLVRNSLTAAPVNLPGTNLRKLYLQDNHINRVPPNAFSYLRQLYRLDMSNNNLSNLPQGIFDDLDNITQLILRNNPWYCGCKMKWVRDWLQSLPVKVNVRGLMCQAPEKVRGMAIKDLNAELFDCKD
modifications: N-linked glycosylation observed at N226

Columns and labels:
SEC = biological target: the molecule itself; test: SEC
[1] = biological target: B1; test: flow cytometry on cells
[2] = biological target: B1; test: BLI

B1
stoichiometry N (SEC): 2

B2: biotinylated human LPHN3 olfactomedin domain (residues V132-G392) (domain or fragment, UniProt Q9HAR2 132-392, looked up)
chain: VFLCPGLLKGVYQSEHLFESDHQSGAWCKDPLQASDKIYYMPWTPYRTDTLTEYSSKDDFIAGRPTTTYKLPHRVDGTGFVVYDGALFFNKERTRNIVKFDLRTRIKSGEAIIANANYHDTSPYRWGGKSDIDLAVDENGLWVIYATEQNNGKIVISQLNPYTLRIEGTWDTAYDKRSASNAFMICGILYVVKSVYEDDDNEATGNKIDYIYNTDQSKDSLVDVPFPNSYQYIAAVDYNPRDNLLYVWNNYHVVKYSLDFG
modifications: biotin (biotinylated; residue not stated)
binding result [1]: binds

B3: human LPHN3 olfactomedin domain (residues V132-G392) (domain or fragment, UniProt Q9HAR2 132-392, looked up)
chain: VFLCPGLLKGVYQSEHLFESDHQSGAWCKDPLQASDKIYYMPWTPYRTDTLTEYSSKDDFIAGRPTTTYKLPHRVDGTGFVVYDGALFFNKERTRNIVKFDLRTRIKSGEAIIANANYHDTSPYRWGGKSDIDLAVDENGLWVIYATEQNNGKIVISQLNPYTLRIEGTWDTAYDKRSASNAFMICGILYVVKSVYEDDDNEATGNKIDYIYNTDQSKDSLVDVPFPNSYQYIAAVDYNPRDNLLYVWNNYHVVKYSLDFG
Kd [2]: 0.22 to 0.26 µM
